Results published in the DeepSol protein solubility set.

Assay: soluble on expression in E. coli; label from the status in PepcDB or PDB records

| Sequence | soluble on expression in E. coli |
| --- | --- |
| NSMAEFQYNLNLEEEKKQLEIENLCFENMKKQMEFTRRARHDLKHHMKAVHTMAENNECKKITEYIETYLEHVSLKKPLVYCTNFTLNALIVYYVQQAEAHKIKLKLNIELPEETNVKEADLTVLFGNLLENAIDACDEVQENKRYINLKIYKPNSDSIVFYIENGFNGSIKKKNQQFLTTKANGNGIGIESVKYVVHKYNGDVNIKTDENKFIVSGVLLQPLDATK | not soluble |
| MSLNVIDLFSGVGGLSLGAARAGFDVKMAVEIDQHAINTHAINFPRSLHVQEDVSLLNAEIIKGFFKNDMPIDGIIGGPPCQGFSSIGKGNPDDSRNQLYMHFYRLVSELQPLFFLAENVPGIMQEKYSGIRNKAFNLVSGDYDILDPIKVKASDYGAPTIRTRYFFIGVKKSLKLDISDEVFMPKMIDPVTVKDALYGLPDIIDANWQSDSESWRTIKKDRKGGFYEKLWGQIPRNVGDTESIAKLKNNIISGCTGTLHSKIVQERYASLSFGETDKISRSTRLDPNGFCPTLRAGTARDKGSFQAVRPIHPYHPRVITPREAARLQGFPDWFRFHVTKWHSFRQIGNSVSPIVAEYILKGLYNLLNKRVQPEYLNHNSLEVREGHHHHHH | soluble |
| MSLYLIVGAYPSTPQVMKNIKMTSDALKKKESLICLNVLSKYNPEKHSNTSKRLPVKFFSGVLIVLMNTDNWASLEKRFSSEIANWRSGGNVICIAIGELGKFKGNDTYYLKTLQIALMNVDDNWIPADSSYELTMLNYLHKHERSFIKPLRYDASNNDVFPDFCLTDIGSTELFPIEVFGMDTASYLARKVIKESYYNERYGKDGWASWEAPAGPLPICPIRPAVNYQMLLEGHHHHHH | not soluble |
| MVFPSEQEQIEKFEKDHVAQHYFEVLRTLISKKSVFAQQVGLKEVANYLGEIFKRVGAEVEIDESYTAPFVMAHFKSSRPDAKTLIFYNHYDTVPADGDQVWTEDPFTLSVRNGFMYGRGVDDDKGHITARLSALRKYMQHHDDLPVNISFIMEGAEESASTDLDKYLEKHADKLRGADLLVWEQGTKNALEQLEISGGNKGIVTFDAKVKSADVDIHSSYGGVVESAPWYLLQALQSLRAADGRILVEGLYEEVQEPNEREMALLETYGQRNPEEVSRIYGLELPLLQEERMAFLKRFFFDPALNIEGIQSGYQGQGVKTILPAEASAKLEVRLVPGLEPHDVLEKIRKQLDKNGFDKVELYYTLGEMSYRSDMSAPAILNVIELAKKFYPQGVSVLPTTAGTGPMHTVFDALEVPMVAFGLGNANSRDHGGDENVRIADYYTHIELVEELIRSYE | soluble |
| MRSPYLIGVFLAAGKSRRMGQNKLALPLKGENIGSLSLKTALSSRLDHVLVVERTEHASLEWIGAPYHAPPFQKRWSLHVCQDAEKGQGHSVSSGVRKAESMGADGIVILLADQPQLSVDHLNALVALAPESFAVSSFLGAFTPPIYFSSTCFPYVKGLKGDEGARRLLKSGQLGAGAVLEAKDSGELDDIDTPRGILEHHHHHH | not soluble |
| MDESEPVRQIYDHKDLAEFLESSAFQDIWDFVERLNCSVRGLSGDALAGPRVPATSLVTAELAALKELAAEVELLPAETGRFGNRAFRTWFSQLQERTPRFTEELLVKSDQTKRYGPDLQAYFLGAFGDPMRIDYGTGHEASFLLFMFCLHRLHLFRAEDFPELVLSVFPAYLATTRYLQQRFTLEPAGSHGVWGLDDYVFLPFLFGSSQLIGKDTEVPPVAARDRELVLELAPKYLYFDTIRFILETKRGPFAEHSPTLYDISGLENWSRINAGLLRMYKAEVWSKLPVIQHIPFGILIPFRSAARTSTERLPAGS | not soluble |
| MKIACVVLTYNRLSLLKRCIDSIRNQTYQEFDIYVIDNASTDGTAHWLSLQNDLTVISIHENKGPANGFYTCLQVPYDDGYDWIWMMDDDGVADKGQLEELLNKTVKNNLYFTNALVCNIDNPEKIAFGAKKTIDTQREELIKGNINPFNGTFIHRRVIEKNGNIMREMYMYGCETEYQLRAIKNGFQVATVTSAIHYHPSPKVSICHLIPYIKYCSIIDYPIDTLFYIRNKAYINYTYLGFKRSLFMITSYSLYYLFRLKIRKVLLFWKYYREGCKGVVGNKKQ | soluble |
| TRDFMWRLGLNLTHYKNVVTDLPLKDMPVSGVHKLAVGRSVYDFYMKKWAGVDPENGDPLWYKNVKDANNKITGRTTTNDYAQADYYYTGKSSLPKVYGGFNTAFSYKGFELSTIFAYSIGNYIVDRDVTMLWHNGSSTGRAWSTEILNRWTPENRYTDVPALKTVSNSWNANSTRNLFNNSFLRMKNITLSYNFPQPMIKKISLNSLQLFVQADNLLTVSKNQGLDPEQDISGLTYYRYPAMRSISGGINVSF | not soluble |
| MGSDKIHHHHHHTKKEISTQPIKVGVFDGHGGAQTCIWETVAAIRLDPEMEVRTITTADIANNALDSIDAIIIPGGSGKSQYLNLGTLNQQRIKDFIAKGKGAVGICAGAYLFSNTPDYTCIQLNGQQAIDIEHDNRGHGLAKFTLCEEGKKIFPELADRDTSFVIYYEGPVFINNPVDTIQSNTLAIMESDVHEEGNAPANMTNGKPFFVANNYGKGRVFSSIAHPEGTPGMMWMIPRMVRWTLNKPFIPYQSSAVRPDLFNHESLMATDDLKQEEKAFQILLSGESEQKVAALDWLEAHHSWDAKRWVQGLLYDASPAVRIRAARYIADTHYLPFLPNLQAAYRTETDKATQEELKTQLEKLTALLP | not soluble |
| MYRVLLSGAAGSGKGTIARMLVREFEPLGFNYFAAGDFIRDHIARGTEFGVRAQSFLNKGEHVPDSILNGAILAEMLKAGPRVVLDGYPRNMSQLKMVEEQAPLNLIVELKVPRKVLIDRLSKQLVHPASGRAYNLEVNPPKEEGKDDITGEPLFKRSTDQLEVARRRLEVYDKTENKVLDYYKKQNKCITMSGESSKAVFESVAEVMRRDLLTTTPRTAYA | not soluble |
| MSDSKPRDVQVLPIATNTKVLRARSWSRLRFEIEYALERGTTSNSYVIEGDKTAIIDPPVESFMKIYLEALQQTVNLKKLDYVILGHFSPNRIPTFKALLELAPQITFVCSLPAAGDLRAAFPDDNLNILPMRGKETLDLGKGHVLKFLPIPSPRWPAGLCTYDVQTQILYTDKIFGAHICGDDVFDDNWESFKEDQRYYFNCLMAPHAIHVEAALEKISDLQVRLYAVGHGPLVRTSLIALTQAYADWSKAQKDREISVALLYASAYGNTATIARAIALGLTKGGVAVKSINCEFATPEEIQTNLEQVDGFLIGSPTIGGHAPTPINTALGIVLKVGDNNKLAGVFGSYGWSGEALDMIEGKLRDAGYRFGLDTLKVKFKPDDVTLKFCEEVGTDFAQTLKKAKKVRVPQQAATPVEQAVGRIVGSVCVITAKQGDVSTGMLGSWVSQATFNPPGLTVAIAKERAIESLMYPGGKFALNILSEGNHLEYMKHFRKNFAPGEDRFANFTTTEADNGCTVLADALAYVECSVDQRLECGDHWVVYATVDNGKLLKPDDVTAINHRKTGNHY | soluble |
| GPGSMFHRTTPEEEVRKWTRSLRSEQRKIELQITKIRREEAKVKLSMKQAAKQNDQVVMRMLAKEMIRSRKAVNRMYASKAQMNSVSMQLQNQASQMKMSGSLKKSGEIMKEMNSLVKVKEVQQSMMAMSKEMVKAGLIDEIMNDTIDEALDDDISDTELEDEVNKVVMDVVQGQMDGARVGASRIPAQQQQQQETAEEEEDELMEKLNALRNS | soluble |
| MGSDKIHHHHHHMVQTPSKPITLDEFLKLPETEPASEYIEGKIIQKPMPQGKHSAIQSECVSVINSVVKPQRIARAFLELRCTFGDHSTVPDISVFIWSRIPREENGEIANIFLIAPDWTIEILSPDQSQTKVTKNILHCLKHGTQMGWLIDPDEQTVFVYRPQQETEVFDEPDALVPVPSFASELHLSIKDLFSWLL | not soluble |
| YQWLPNIGSGEAGADWGLRLTSRDMGKFGLMWLNKGQYNGTKIVGEEWLNELRKSKFYSYEMGYGLHFWQVSNVENGVAAVGIGEQYIVAIPNKNAVIVTTAGNYETRSRPVLTLIQQLSSLL | not soluble |
| MGSDKIHHHHHHMSSADLLAPYRGPLTVEQVATGMNAATANARRLAQDARLLLANKRWPTAASLAALSIEESGKVVILRRFVTANTDDIKRLWKEYRTHTKKNINWILPELVAKGARRLEDFKPIVDSASDHPDILDAMKQIGFYTDCLGKTNWSRPTEVVDETLAKNLVNAAEVLSPDRNISVRELELWAEHMGPVWNKNLDWMKQALVNWYGAMQAEGLMPAGSNKMQAFVKEGLATDQAKQIGREV | not soluble |
| MGCMIQSFRCKSTQAMFEGECPQRFSAIQAVAERKLAQLEAAQTLDFLRSPPGNRLEKLAGDREGQWSIRINAQWRICFTWSDLDPADVEIVDYH | not soluble |
| MTATSNSAPLAGGSLSSSATAQPPQPPPGHQQQHPLPQIYDSQMQYYYGSSMPNQPIPTYTAQNGAPQQFGTPPYYQDANGQFGQVPAQQQMMTAGHPYFYMAQPQQGGQHVAQSGQPQIFYYQQPLGQMAQQAAPMYFHPMQAASTPMLSEQMSMMPQIQSTNPQQSEQLRKSGAQISTTRTVPLTSSTPLPTSREYETVQRDRNRNSQSRYQCPIEHDDLPIDEISKITIDNHNDDTMSAEKENRFNKNRVEKLGRRGFAKPEVDSQLPHNFKTRLCMTHAAGINPCALGARCKFAHGLKELRASDIPTRYPNNKYKTKLCKNFARGGSGVCPYGLRCEFVHPSDTEFQNIPPYQRKMVEEHDSIPEDYVVARYQPRFMHTSGKATTPTKVTLKQRNVAGSMMCLSNTGRDLEAGGDFNHPEINENDLPPHLRRIRRGNPPVTRSRPSFSTKWTSVENLGLRGHY | not soluble |
| MKKIKLGFAPTRRSIFSAPDAVKYRGLTAQRLKELGVDFVDITDINEEGLLYDDKDVDKIVEKFKKEGVDGLMLPHCNFGTEYVCARLAKKLDVPVLLWGPLDERPEPNGVRLRDTQCGLFATGKVLRRFQIPFTYLTNCRLNDPVFERGVKDFLAVCNVVKTFKNIRILQISTRPFDFWTTMCNEGELLEKFNIQLAPVPMTELTEEVKTVREDKEKMEQMIAYIKDTMVIKIKEEEVEMVAALALAMKSLVEKYGCQAAAIQCWNALQTEIGIMPCAANAILNEQGIPVVCETDIHGAVTALLAEAAGMDEKRGFFADWTIRHPDIENGELLQHCGPWPMSVAQEKPELTYPLAFEHPGSLTAEAKHGEVTLCRFDGDNGEYSLLLGNAKGVDGPKGMGTYLWVEVENIKRLEAKIVEGPYIHHCVGIHKNVVPVLYEACKYIGVKPDLYDPIEEDVKAYLRGE | not soluble |
| MGSDKIHHHHHHMDYMKKLLGAEDLFDRDEPLKGVRVLEVCSVVLGPAATDYLAEFGAEVIKFEARRGDQMRYVTPYAYFWRNLSPGLLEQNHNKYWVGMHLGHPKARELFYEFVKRSDVVVDNLTPGRLSKWGISYDRLREINPRIIQLHVSGFGSWGPYTGRTSYDAIAQSEGGLAYITGFEGRGPLKSGVWIADWTTALMCAVAIVAALNYRERTGEGQYIDYSQVENVIRFLDWTWTYVDMTGENRERVGNRDLAICPSDLFDCKDGWVAIVAFSEEEFKGLCQAMGRMDLYEKFADPLERLKDENARLILKEIAEWAKTKTVKDVEELADKYGFAASHVIEVDEAYYSEHLRERGAIMAYDDPLYGEFVEPCYPPRMETPSRLKWGARPLGFDNEFVLTKYLGLSMDEIEQLYEEGVIYRWNPDVKPQCPPPDWDGKKGLKFP | not soluble |
| ISNRIKGKTVLVTGAGGSIGSEICRQISAFQPKEIILLGHGENSIHSIYTELNGRFGKHIVFHTEIADVQDRDKMFTLMKKYEPHVVYHAAAHKHVPLMEHNPEE | not soluble |
